Experimental data taken from paper doi:10.1101/568972v1 (biorxiv, 2019).

What was measured:
[1] = target: T1, AceKMs (Mycolicibacterium smegmatis, UniProt A0QQK1); experiment: HPLC of ATP/ADP, steady-state kinetics; type: biochemical; settings: read-out: KM (substrate); ADP in excess; 10 mM MgCl2, pH 9.0, room temperature
T1 sequence (A0QQK1 1-376): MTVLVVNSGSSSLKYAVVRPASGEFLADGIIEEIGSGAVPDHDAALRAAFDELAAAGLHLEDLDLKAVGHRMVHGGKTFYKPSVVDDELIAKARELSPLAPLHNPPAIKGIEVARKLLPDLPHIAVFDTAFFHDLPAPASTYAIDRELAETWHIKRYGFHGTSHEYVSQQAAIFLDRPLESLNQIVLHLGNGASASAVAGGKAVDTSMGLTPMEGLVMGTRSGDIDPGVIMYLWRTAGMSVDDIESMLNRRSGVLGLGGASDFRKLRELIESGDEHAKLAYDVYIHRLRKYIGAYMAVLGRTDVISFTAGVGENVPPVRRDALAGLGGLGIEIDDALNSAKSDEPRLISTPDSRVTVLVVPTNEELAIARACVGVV

[2] = substrate: OCC(O)CO; experiment: purified protein, by the assay type; settings: pH 9.0
[3] = substrate: OCC(O)CO; experiment: purified protein; type: biochemical, Thermococcus kodakarensis; settings: ATP in excess, 10 mM MgCl2, 50 mM NaHCO3 pH 9.0, room temperature
[4] = substrate: NC(=O)C1=CN([C@@H]2O[C@H](COP(=O)(O)OP(=O)(O)OC[C@H]3O[C@@H](n4cnc5c(N)ncnc54)[C@H](O)[C@@H]3O)[C@@H](O)[C@H]2O)C=CC1; experiment: purified protein; settings: O2, 50 mM sodium phosphate pH 7, 1 mg/mL BSA, ambient temperature
[5] = substrate: Nc1ncnc2c1ncn2[C@@H]1O[C@H](COP(=O)(O)OP(=O)(O)O)[C@@H](O)[C@H]1O; experiment: purified protein, by the assay type
[6] = substrate: NC(=O)c1ccc[n+]([C@@H]2O[C@H](COP(=O)(O)OP(=O)(O)OC[C@H]3O[C@@H](n4cnc5c(N)ncnc54)[C@H](O)[C@@H]3O)[C@@H](O)[C@H]2O)c1; experiment: purified protein, by the assay type
[7] = substrate: O=P(O)(O)OC[C@H](O)CO; experiment: purified protein, by the assay type
[8] = substrate: O=P(O)(O)OC[C@H](O)CO; experiment: purified protein; settings: NAD+ co-substrate, 50 mM sodium phosphate pH 9.0, ambient temperature
[9] = substrate: O=C(CO)COP(=O)(O)O; experiment: purified protein; settings: acceptor aldehyde not stated; 'DHAP' printed as table sub-heading

For `CC(=O)OP(=O)(O)O` [acetyl phosphate], the Km [1] was 390 ± 8 µM.

B1: GlpKTK-AceKMs-Est2Aa (Thermococcus kodakarensis KOD1) (protein)
chain: MEKFVLSLDEGTTSARAIIFDRESNIHGIGQYEFPQHYPRPGWVEHNPEEIWDAQLRAIKDAIQSARIEPNQIAAIGVTNQRETTLVWDKDGKPLYNAIVWQCRRTAEMVEEIKREYGTMIKEKTGLVPDAYFSASKLKWLLDNVPGLREKAEKGEVMFGTVDTFLIYRLTGEHVTDYSNASRTMLFNIKKLDWDDELLELFDIPESVLPEVRESSEVYGYTKKELLGAEIPVSGDAGDQQAALFGQAAFEAGMVKATYGTGSFILVNTDKMVLYSDNLLTTIAWGLNGRVSYALEGSIFVTGAAVQWLRDGIKIIKHASETEELATKLESNEGVYFVPAFVGLGAPYWDQFARGIIIGITRGTGREHLARATLEAIAYLTRDVVDEMEKLVQIKELRVDGGATANDFLMQFQADILNRKVIRPVVKETTALGAAYLAGLAVDYWADTREIAELWKAERIFEPKMDEKTRERLYKGWKEAVKRAMGWAKVVDSAKSN
B1 was tested, and the Km [2] was 16 ± 4 µM, the kcat [2] was 1400 ± 54 s⁻¹ and the kcat/Km [2] was 8.6e+07 M⁻¹ s⁻¹.

B2: GlpKTk (Thermococcus kodakarensis KOD1) (protein)
chain: B1 chain
B2 showed a Km [3] of 15 ± 2 µM and a kcat [3] of 940 ± 8 s⁻¹.

B3: NoxCa (Anaerocolumna aminovalerica) (protein)
chain: MKIVVIGCTHAGTAAVKTILKENPEAEITIFERNDNISFLSCGIALYVGGVVKDPAGLFYSNPEELSKMGANVKIKHNVKSIDTKSKKVIAEDMNTGEEIEVSYDKLVNTTGSWPIIPPIPGIESKNILLCKNYDQANVIIRQTKDAKKIVIVGGGYIGIELVEAFQKSGKQVTLIDGLDRILNKYLDKEFTDILEDDLKKNGINLALDQCVKSFKANENGEVTSVETTKGEYEADMVILCVGFRPNNELLKGKVDMLPNDAIIVDEYMRTSDPDIFAAGDSCAVHYNPNGNYAYIPLATNAVRMGMLIGKNISTPKVKYRGTQSTSGLNLFGYNIGSTGVTVSGAPQIGLNVRSVIVKDNYRPEFMPTNEEIIMQLVYEVGTNRIVGGQVMSKYDITQSANTLSLAIQNKMTIEDLAYVDFFFQPHFDRPWNYLNILGLAALEQEGL
With B3 the Km [4] was 258 ± 21 µM and the kcat [4] was 1,252 ± 182 s-1.

B4: GlpKTk-AceKMs-Est2Aa (Mycolicibacterium smegmatis MC2 155) (protein)
chain: T1 sequence (A0QQK1 1-376)
B4 showed a Km [5] of 398 ± 29 µM.

B5: G3PDEc-NOXCa-Est2Aa (Escherichia coli K-12) (protein)
chain: MNQRNASMTVIGAGSYGTALAITLARNGHEVVLWGHDPEHIATLERDRCNAAFLPDVPFPDTLHLESDLATALAASRNILVVVPSHVFGEVLRQIKPLMRPDARLVWATKGLEAETGRLLQDVAREALGDQIPLAVISGPTFAKELAAGLPTAISLASTDQTFADDLQQLLHCGKSFRVYSNPDFIGVQLGGAVKNVIAIGAGMSDGIGFGANARTALITRGLAEMSRLGAALGADPATFMGMAGLGDLVLTCTDNQSRNRRFGMMLGQGMDVQSAQEKIGQVVEGYRNTKEVRELAHRFGVEMPITEEIYQVLYCGKNAREAALTLLGRARKDERSSH
For B5, the Km [6] was 164 ± 10 µM, the Km [7] was 659 ± 47 µM and the kcat [7] was 7 ± 0.6 s⁻¹. The kcat/Km [7] was 11000 M⁻¹ s⁻¹.

B6: G3PDEc (Escherichia coli K-12) (protein)
chain: B5 chain
With B6 the Km [8] was 59 ± 4 µM and the kcat [8] was 85 ± 11 s⁻¹.

B7: FruASc (Staphylococcus carnosus subsp. carnosus TM300) (protein)
chain: NQEQFDKIKNGKGFIAALDQSGGSTPKALKDYGVEENEYSNDEEMFNLVHDMRTRIITSPAFNGEKILGAILFEQTMDREVEGKYTGSYLADKGIVPFLKVDKGLAEEADGVQLMKPIPDLDKLLDRANERGIFGTKMRSNILENNKEAIEKVVKQQFEVAKEIIAAGLVPIIEPEVNINAKDKEAIEANLAEAIKAELDNLKKDQYVMLKLTIPTKVNAYSELIEHPQVIRVVALSGGYSRDEANKILKQNDGLIASFSRALVSDLNAQQSDAEFNEKLQEAIDTIFDASVNKA
B7 was tested, and the Km [9] was 500 ± 80 µM and the kcat [9] was 16 ± 2 s⁻¹.
